We go through 3 molecules from paper PMC7556753, “A double role of the Gal80 N terminus in activation of transcription by Gal4p” (Life Science Alliance, 2020).

Experiment [1] deals with T1, KlGal1p with N-terminal His6-tag (NHKlGal1p) (Kluyveromyces lactis) (UniProt P09608).
T1 sequence: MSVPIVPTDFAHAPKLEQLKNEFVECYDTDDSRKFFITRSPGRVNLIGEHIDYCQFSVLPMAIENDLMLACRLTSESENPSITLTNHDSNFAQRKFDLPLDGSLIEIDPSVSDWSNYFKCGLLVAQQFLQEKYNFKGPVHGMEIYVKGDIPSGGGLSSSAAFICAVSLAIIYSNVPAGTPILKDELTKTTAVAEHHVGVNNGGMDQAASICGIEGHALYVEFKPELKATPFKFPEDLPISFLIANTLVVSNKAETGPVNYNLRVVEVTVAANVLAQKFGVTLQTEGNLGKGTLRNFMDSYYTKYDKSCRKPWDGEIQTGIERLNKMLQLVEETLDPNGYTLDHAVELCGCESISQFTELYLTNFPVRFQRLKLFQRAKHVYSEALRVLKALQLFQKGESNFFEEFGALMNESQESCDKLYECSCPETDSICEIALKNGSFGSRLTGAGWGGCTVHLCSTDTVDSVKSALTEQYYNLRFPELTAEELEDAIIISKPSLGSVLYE

For experiment [2], the target named is T1, KlGal1p with N-terminal His6-tag (NHKlGal1p) (Kluyveromyces lactis). The experiment can be described thus: galactokinase inhibition titration; 10 nM NHGal1p with increasing concentrations of NHKlGal80p or NHKlGal80-KR56Ap; ADP production coupled to pyruvate kinase and lactate dehydrogenase (NADH consumption); apparent KD from the decline in KlGal1p activity.

In experiment [3] the target is T2, KlGal1p with N-terminal His6-tag (NHKlGal1p) (Kluyveromyces lactis, UniProt P09608 1-503).
T2 construct: KlGal1p, galactokinase (Gal1 protein) of Kluyveromyces lactis; also called NHGal1p; source: E. coli Rosetta (DE3)-pLys, from pETNHG1, purified as described in Anders et al, 2006b; not shown: His6, N-terminal, kept
T2 sequence (looked up): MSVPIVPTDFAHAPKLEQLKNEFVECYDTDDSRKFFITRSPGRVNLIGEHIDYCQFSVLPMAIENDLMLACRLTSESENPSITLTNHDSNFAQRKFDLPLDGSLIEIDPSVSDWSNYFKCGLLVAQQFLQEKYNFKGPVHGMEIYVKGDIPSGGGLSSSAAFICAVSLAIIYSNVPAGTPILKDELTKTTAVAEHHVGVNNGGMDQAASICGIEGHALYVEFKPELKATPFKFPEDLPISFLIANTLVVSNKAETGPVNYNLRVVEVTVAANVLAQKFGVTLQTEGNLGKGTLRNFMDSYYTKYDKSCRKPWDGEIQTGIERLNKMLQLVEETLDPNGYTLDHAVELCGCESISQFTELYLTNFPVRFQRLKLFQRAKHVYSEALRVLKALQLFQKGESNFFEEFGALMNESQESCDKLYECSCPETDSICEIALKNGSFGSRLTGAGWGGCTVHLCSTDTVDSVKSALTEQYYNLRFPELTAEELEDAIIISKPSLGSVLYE
Described as above. Conditions: both partners purified.

In experiment [1], “KlGal80-K5A/R6Ap with N-terminal His6-tag (NHKlGal80-K5A/R6Ap) (from UniProt Q06433 1-457) (natural protein)” gave a relative galactokinase activity of KlGal1p with KlGal80-K5A/R6Ap (in % of the activity in the absence of KlGal80p or its peptide) of 93.6%. Also, the Kd in experiment [2] is 3.1 µM. As for MNNNKRSKLSTVPSSRP [peptide KlN17G80 (N-terminal 17 residues of KlGal80p)], the relative galactokinase activity of KlGal1p with the KlN17G80 peptide alone (in % of the activity in the absence of KlGal80p or its peptide) in experiment [1] came out at 99.4%.

B1: KlGal80p with N-terminal His6-tag (NHKlGal80p) (natural protein, Kluyveromyces lactis)
chain: MNNNKRSKLSTVPSSRPIRVGFVGLTSGKSWVAKTHFLAIQQLSSQFQIVALYNPTLKSSLQTIEQLQLKHATGFDSLESFAQYKDIDMIVVSVKVPEHYEVVKNILEHSSQNLNLRYLYVEWALAASVQQAEELYSISQQRANLQTIICLQGRKSPYIVRAKELISEGCIGDINSIEISGNGGWYGYERPMRSPEYLYDIESGVNLISNSFGHTIDVLQYITGSYFQKINAMISNNIPTQFLLDENGKRTKETISKTCPDHLLFQGILENGKVPVSCSFKGGTPVKKLTKNLVIDIHGTKGDLKIEGDAGFVEISNLVLYFYGIKNGNGSSNGTDNNGAAAIKDKEKVTKSPSPSTGTSEEEQTMEVFHLRNYNSVVGNILRIYESIADYHFLGKPESKSSRGPDDLFASTKFDKQGFRFEGFPTFKDAIILHRLIDAVFRSDKEEKTLDVSKIMI
notes: KlGal80p, Gal80 protein of Kluyveromyces lactis, wild type; 457 residues by the printed fragment aa 40-457; also called KlGal80p wild-type; source: E. coli Rosetta (DE3)-pLys, from pETNHG80, purified as described in Anders et al, 2006b; not shown: His6, N-terminal, kept
On to B1, for which the Kd in experiment [3] came to 0.081 µM.
